Data reported in doi:10.1101/187336.

Target: fHbp^V1.1:PorA^267/P1.16 (Neisseria meningitidis (MC58 genomic DNA) | Neisseria meningitidis) (UniProt Q9JXV4)
Test: SPR

## human complement FH domains 6 and 7 (from UniProt P08603 321-443) (domain or fragment)
  fold reduction of CFH binding: 8 fold
